According to patent US20140148356:

Columns and labels:
[1] = target: HBcAg (Hepatitis B virus core protein, 21 kDa) (Hepatitis B virus) (UniProt P03146); details: affinity qPCR; 7.6 nM HBcAg, 1 nM DNA
[2] = target: HBcAg (Hepatitis B virus core protein, 21 kDa) (Hepatitis B virus) (UniProt P03146); details: affinity qPCR on Ni-NTA plate; 0.1 nM aptamer, 0.1-5 nM protein; 20 mM Tris-HCl pH 7.6, 5 mM KCl, 100 mM NaCl, 5 mM MgCl2, 1 mM CaCl2, RT 1 h

HBcAg (Hepatitis B virus core protein, 21 kDa) (Hepatitis B virus), sequence (P03146 whole entry): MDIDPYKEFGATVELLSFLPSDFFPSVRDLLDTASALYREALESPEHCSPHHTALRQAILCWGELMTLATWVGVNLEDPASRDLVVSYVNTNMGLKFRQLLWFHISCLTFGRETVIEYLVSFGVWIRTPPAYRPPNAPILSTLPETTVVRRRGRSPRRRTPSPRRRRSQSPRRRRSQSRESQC

Q: With “AGCAGCACAGAGGTCAGATGTTGCATACGCCAAACAAGCATTGACAAGGTAACCCTGGGCCCTATGCGTGCTACCGTGAA [A-23]” as the sequence, how does the binding signal [1] read?
A: 1.45 % bound

Q: With “AGCAGCACAGAGGTCAGATGAGGCCTGGTGATCGTGCCCAGGCCATATGAGCAAGGAACCCCTATGCGTGCTACCGTGAA [A-9]” as the sequence, how does the binding signal [1] read?
A: 1 % bound

Q: With “AGCAGCACAGAGGTCAGATGACATCTAGAACCAACGGTTCTGTTTGATGAGAATTCGGCCCCTATGCGTGCTACCGTGAA [A-19]” as the sequence, how does the binding signal [1] read?
A: 1.17 % bound

Q: For “AGCAGCACAGAGGTCAGATGTTTCCGAGGGAGTGGAATTAGCAAGGTGGAAGTGTTTCTACCTATGCGTGCTACCGTGAA [A-18]”, which binding signal [1] is on record?
A: 8.3 % bound

Q: And the Kd [2]?
A: 0.14 nM

Q: Which results are given for “AGCAGCACAGAGGTCAGATGGTTACATGCGCAGTAGCCGACGTACTCTGGTAAAAGGTAGCCTATGCGTGCTACCGTGAA [A-38]”?
A: binding signal [1]: 7.2 % bound; Kd [2]: 0.16 nM
